Measurements published in patent CN117126283A (SHENZHEN NEW IND BIOMEDICAL ENGINEERING CO LTD, dated 2023).

T1: α2-纤溶酶抑制剂(α2-AP) (UniProt P08697 40-491, limits assumed)
T1 construct: also called α2-antiplasmin; 游离态的α2-AP
T1 sequence (looked up): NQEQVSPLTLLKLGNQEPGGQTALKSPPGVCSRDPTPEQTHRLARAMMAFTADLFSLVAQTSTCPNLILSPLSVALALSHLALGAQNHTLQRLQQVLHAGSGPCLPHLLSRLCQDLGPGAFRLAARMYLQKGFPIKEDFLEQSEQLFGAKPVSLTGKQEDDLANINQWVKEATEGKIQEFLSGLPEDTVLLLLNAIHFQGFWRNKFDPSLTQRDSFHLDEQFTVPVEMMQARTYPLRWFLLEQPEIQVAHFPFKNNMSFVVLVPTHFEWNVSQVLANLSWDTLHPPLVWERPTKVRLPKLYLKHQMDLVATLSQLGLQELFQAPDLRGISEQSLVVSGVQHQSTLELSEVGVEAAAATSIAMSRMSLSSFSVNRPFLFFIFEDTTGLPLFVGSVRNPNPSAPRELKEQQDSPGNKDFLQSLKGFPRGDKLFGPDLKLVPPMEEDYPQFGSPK

B1: PIC抗体(WT1) (antibody, mouse IgG1, kappa, V domains shown)
VH: QVQLQQSGPELVKPGASVKLSCKASGNAFSSSWMNWVKQRPGQGLEWIGRIYPGDGDTNYNGKFKGKATLTVDKSSSTVYMQLSSLTSVDSAVYFCGRGNPTTAYAMDYWGQGTSVTVSS
VL: DIVLTQSPASLAVSLGQRATLSCRASESVDSFGYSFMHWYQQNPGQPPKLLIYRASNLESGIPARFSGSGSRTDFTLTINPVEADDVATYFCQQTNEDPYTFGGGAKLEIKR
notes: that VL1/VH1 belong to 1C2B4 (WT1) follows from the order of naming, not from an explicit sentence; also called 1C2B4; PIC单抗(WT1)
B2: PIC抗体(WT2) (antibody, mouse IgG1, kappa, V domains shown)
VH: QVQLQQPGAELVRPGASVKLSCKASGYTFTSSWMHWVKQRPEQGLEWIGYIDPYDSETHYNQKFKDKAILTVDKSSSTAYMQLSSLTSEDSAVYYCARGYDRSFDYWGQGTTLTVSS
VL: DIKMTQSPSSMFASLGERVTITCKASQDIKSFLNWYQQKPWRSPKTLIYYATSLADGVPSRFSGSGSGQDFSLTISSLESDDAATYYCLQHGESPFTFGGGTKLEIKR
notes: That VL2/VH2 belong to 5B3F6 (WT2) follows from the order of naming, not from an explicit sentence; also called 5B3F6; PIC单抗(WT2)

Columns and labels:
纤溶酶-α2纤溶酶抑制剂复合物(PIC) = biological target: T2, 纤溶酶-α2纤溶酶抑制剂复合物(PIC) (UniProt P00747 97-810; P08697 40-491, limits assumed); assay: SPR (BIAcore 3000), antibody captured by goat anti-mouse IgG Fc on CM5, PIC as analyte
T2 construct: also called PIC抗原; PIC复合物
T2 sequence (P00747 97-810 limits assumed, one chain of several): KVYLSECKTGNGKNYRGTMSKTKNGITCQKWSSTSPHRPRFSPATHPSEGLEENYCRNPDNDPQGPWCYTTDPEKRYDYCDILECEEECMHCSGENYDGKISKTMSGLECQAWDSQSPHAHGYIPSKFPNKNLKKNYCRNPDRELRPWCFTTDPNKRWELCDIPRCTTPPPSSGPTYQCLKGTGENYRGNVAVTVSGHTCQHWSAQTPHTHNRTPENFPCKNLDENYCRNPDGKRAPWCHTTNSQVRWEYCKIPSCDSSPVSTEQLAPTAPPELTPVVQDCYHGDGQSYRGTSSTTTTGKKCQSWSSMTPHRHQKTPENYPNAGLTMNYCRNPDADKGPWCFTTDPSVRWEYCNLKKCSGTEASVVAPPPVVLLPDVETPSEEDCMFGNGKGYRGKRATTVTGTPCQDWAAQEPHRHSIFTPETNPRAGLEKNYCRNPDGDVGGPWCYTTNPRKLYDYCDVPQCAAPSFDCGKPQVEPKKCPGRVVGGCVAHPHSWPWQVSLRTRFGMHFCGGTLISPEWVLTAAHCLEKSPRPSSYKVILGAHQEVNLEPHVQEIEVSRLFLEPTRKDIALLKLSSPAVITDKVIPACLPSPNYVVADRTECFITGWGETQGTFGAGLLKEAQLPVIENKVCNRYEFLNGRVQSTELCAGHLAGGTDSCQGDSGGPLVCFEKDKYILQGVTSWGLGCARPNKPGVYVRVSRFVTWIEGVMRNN

α2-纤溶酶抑制剂(α2-AP) = biological target: T1, α2-纤溶酶抑制剂(α2-AP); assay: summing-up of the examples (ELISA specificity, Example 4; table 2 not shown)
纤溶酶原(Plg) = biological target: T3, 纤溶酶原(Plg) (UniProt P00747 20-810); assay: as above
T3 construct: Free precursor, used as coating antigen in ELISA; also called Plasminogen; 游离态的Plg
T3 sequence (P00747 20-810 limits assumed): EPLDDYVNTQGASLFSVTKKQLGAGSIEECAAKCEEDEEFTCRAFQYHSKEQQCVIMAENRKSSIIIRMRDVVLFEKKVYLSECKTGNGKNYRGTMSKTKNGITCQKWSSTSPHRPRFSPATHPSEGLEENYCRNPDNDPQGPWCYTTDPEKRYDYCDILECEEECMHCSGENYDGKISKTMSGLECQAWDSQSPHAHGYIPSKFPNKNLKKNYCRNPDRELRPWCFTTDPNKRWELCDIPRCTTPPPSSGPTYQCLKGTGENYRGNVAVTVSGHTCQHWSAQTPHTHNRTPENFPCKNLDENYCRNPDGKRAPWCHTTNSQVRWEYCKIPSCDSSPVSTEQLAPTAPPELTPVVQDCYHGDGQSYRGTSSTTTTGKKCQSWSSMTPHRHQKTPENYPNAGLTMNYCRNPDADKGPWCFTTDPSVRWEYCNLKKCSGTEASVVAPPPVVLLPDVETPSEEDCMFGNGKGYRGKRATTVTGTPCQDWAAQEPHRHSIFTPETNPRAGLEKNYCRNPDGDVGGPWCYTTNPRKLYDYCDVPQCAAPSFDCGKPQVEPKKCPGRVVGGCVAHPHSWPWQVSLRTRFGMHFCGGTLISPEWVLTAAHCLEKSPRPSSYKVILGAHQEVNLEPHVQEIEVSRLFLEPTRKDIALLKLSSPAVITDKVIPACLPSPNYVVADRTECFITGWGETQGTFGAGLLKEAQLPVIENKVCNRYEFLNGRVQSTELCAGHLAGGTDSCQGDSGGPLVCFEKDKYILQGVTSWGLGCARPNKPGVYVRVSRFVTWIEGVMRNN

Binder	Kd (纤溶酶-α2纤溶酶抑制剂复合物(PIC))	koff (纤溶酶-α2纤溶酶抑制剂复合物(PIC))	kon (纤溶酶-α2纤溶酶抑制剂复合物(PIC))	binding result (α2-纤溶酶抑制剂(α2-AP))	binding result (纤溶酶原(Plg))
B1	1.29 nM	8.54e-05 s⁻¹	65900 M⁻¹ s⁻¹	no binding	no binding
B2	1.21 nM	9.54e-05 s⁻¹	78900 M⁻¹ s⁻¹	no binding	no binding
